This note sets out measurements from patent US20110059093A1.

This assay deals with T1, Tau fragment Ser-Ile-Asp-Met-Val-Asp-Ser-Pro-Gln-Leu-Ala-Thr-Leu-Ala-Asp (SEQ ID NO:10) (human).
T1 sequence (peptide, biotinylated): SIDMVDSPQLATLAD
Kind of assay: ELISA, biotinylated peptide on streptavidin plate, absorbance 405 nm-492 nm.

B1: Mab2.10.3 (anti-Tau pS422 antibody) (antibody, IgG1, V domains shown)
VH: EVQLVESGGDLVRPGGSLKLSCAASGFTFRTYGMSWVRQTADKRLEWVATISSGGTYTYYADNVRERFTISRDNARDTLYLQMSRLESDDTAMYYCTRRYGYDGGGSFDVWGAGTRVTVSS
VL: EIVMTQAAPSVPVTPGESASISCRSNKSLLHSNGNTYLCWFLQRPGQSPQLLIYRMSTLAPGVPDRFSGSGSGTAFTLRISRLEAEDVGVYYCMQHIEYPLTFGAGTKLELK
For B1, the Max O.D. Tau fragment binding is 30 mE.
